From patent publication US10323078B2, “Isolated peptides and fragments thereof from fibrinogen for use as drugs, particularly in skin inflammatory diseases” (Universite Paris Descartes, priority 2015, dated 2019)

Legend:
[1] = tested on: HaCaT, NHDK, ThP1, MRC5 and HDF cell lines; assay: Cell viability (MTT) after treatment with Fg1 and Fg2 recombinant peptides; type: cell-based, human; settings: all 5 cell lines; 0.22 to 7 mM for 18 h at 37° C.
Protocol: FIG. 10: Evaluation of cell viability after treatment with the Fg1 and Fg2 recombinant peptides. Human immortalized and primary keratinocyte cell lines HaCaT and NHDK; immortalized monocytes cell line ThP1, and immortalized and primary fibroblast cell lines MRCS and HDF were incubated with Fg1 and Fg2 recombinant peptides with concentrations ranging from 0.22 to 7 mM for 18 h at 37° C. Cell viability was assessed using the MTT assay as described in Materials and Methods.
Crystal violet staining was used to determine the number of adherent cells in 96-well plates. Briefly, after incubation with the test compound, the culture medium was discarded and the cells were incubated with a 0.05% crystal violet solution (Sigma) for 30 min at room temperature. After washing with PBS, 100% methanol was added, and the absorbance was measured spectrophotometrically at 540 nm on an ELISA multiwell reader. The MTT ([…]) assay was performed to test cell viability in 96-well plates. […] After thorough mixing, the absorbance was measured at 540 nm.
(§1) Whole P. acnes bacteria are labelled by biotinylation, pre-treated or not with the peptides and contacted with the various cell lines. After removal of the unfixed bacteria, the adhesion activity was measured spectrophotometrically by using the streptavidin-peroxidase conjugate and a chromogenic substrate.

[2] = tested on: P. acnes RON strain; assay: Adhesion assay, biotinylated P. acnes binding to fibroblasts (HDF); type: cell-based, Propionibacterium acnes; settings: bacteria pretreated 0.87 to 7 μM, 1 h at 37° C.
Protocol: The bacterial suspension was adjusted at 600 nm to the desired concentration, pretreated with peptides Fg1 and Fg2 at the final concentration ranging from 0.87 to 7 μM for 1 h at 37° C. and deposited on the previously saturated cells with a solution of PBS SVF 2% for 2 h. After incubation for 1 h at 37° C., unbound bacteria are removed by 3 washes with PBS and fixed bacteria are detected by a streptavidin-peroxidase solution of 0.5 μg/ml for 30 min.
as §1
The ability of P. acnes strains 6919, RON and PIE was tested at 3 concentrations to adhere to various cells lines. It has been shown that the strains of P. acnes tested bound to the three kind of cell lines tested (keratinocytes, monocytes and fibroblast) with a maximum adhesion strength found for keratinocytes (FIG. 11). Knowing that P. acnes is able to recognize fibrinogen, it was used human and bovine whole fibrinogen to compete the interaction between the bacteria and the target cell. […] Then, the ability Fg1 to inhibit the adhesion of bacteria and RON PIE was evaluated on the 3 main types cell. […]

[3] = tested on: HaCaT cells; assay: O2°− production by P. acnes-stimulated HaCaT (spectrofluorimetry, DHE); type: cell-based, human; settings: bacteria first pretreated, 0.87 to 7 μM
Protocol: FIG. 14: Dose-dependent inhibition of O2^∘− production by keratinocytes stimulated by P. acnes pre-treated by recombinant peptide. HaCaT cell were incubated for 18 h with P. acnes PIE strain at a concentration adjusted to 0.2 of absorbance at 600 nm (blue bar) and with P. acnes pretreated with recombinant peptide Fg1 (light gray bar) and Fg2 (dark gray bar). Measurement of superoxide anion production was realized by spectrofluorometry as described in Materials and Methods. Control experiment was done on unstimulated HaCaT cell (red bar). Data are means±S.D. of three separate experiments. Statistical significance is indicated by * (P<0.05), ** (P<0.01), *** (P<0.001), and **** (P<0.0001), respectively.
For experiences of stimulation with P. acnes, cells were incubated with the P. acnes suspension adjusted at the appropriate concentration, pre-treated for 1 h at 37° C. or not with fibrinogen recombinant peptides Fg1 and Fg2 at the concentrations 0.87, 1.75, 3.5 or 7 μM for the desired period of time at 37° C. in 5% CO2.
All cells lines (5·10^4 to 10^5 cells/well) were seeded in 96-well plates (Corning Costar, Brumath, France) and treated as previously described. After stimulation, cells were washed three times in PBS and incubated with 100 μl per wells of 5 μM DHE (for determination of O2^●−) or 5 μM H2-DCFDA (for determination of H2O2) for 30 min as described previously and fluorescence intensity was recorded every hour over a period of 5 h. Fluorescence excitation/emission maxima were for DHE: 480/610 nm and for H2-DCFDA: 507/525 nm. At the end of the experiment, the number of adherent cells was evaluated by the crystal violet assay as described below. […] Levels of ROS were calculated in each sample as follows: reactive oxygen species rate (arbitrary units/min/10^6 cells)=(fluorescence intensity [arbitrary units] at T5h—fluorescence intensity [arbitrary units] at To/300 minutes/number of adherent cells as measured by the crystal violet assay, and were expressed as arbitrary unit (A.U.). […]

B1: MKRMVSWSFHKLKTMKHLLLLLLCVFLVKSQGVNDNEEGFFSARGHRPLDKKREEAPSLRPAPPPISGGGYRARPAKAAATQKKVERKAPDAGGCLHADPDLGVLC (protein)
chain: MKRMVSWSFHKLKTMKHLLLLLLCVFLVKSQGVNDNEEGFFSARGHRPLDKKREEAPSLRPAPPPISGGGRARPAKAAATQKKVERKAPDAGGCLHADPDLGVLCMKRMVSWSFHKLKTMKHLLLLLLCVFLVKSQGVNDNEEGFFSARGHRPLDKKREEAPSLRPAPPPISGGGYRARPAKAAATQKKVERKAPDAGGCLHADPDLGVLC
modifications: GST fusion; fragment Fg1
notes: fragment of Bß chain of human fibrinogen having 106 amino acids; recombinant GST-fused peptide expressed in E. coli
- Cytotoxic activity (cell viability, MTT) [1]: no cytotoxic activity
- Inhibition of adhesion of P. acnes RON strain [2]: inhibits the adhesion of RON strain in a dose-dependent manner
- Inhibition of Superoxide anion (O2°−) production ([3]; P. acnes 6919, set I): pos
- Inhibition of Superoxide anion (O2°−) production ([3]; P. acnes PIE, set I): pos
- Inhibition of Superoxide anion (O2°−) production ([3]; P. acnes RON, set I): pos
